Measurements taken from paper PMC9157410.

Target: recombinant TpiA (triosephosphate isomerase of Streptococcus pneumoniae D39) (S. pneumoniae D39) (UniProt P66943)
Assay: SPR; Biacore X100; rTpiA amine-coupled on a CM5 chip; plasminogen, laminin and BSA injected at 3.125 to 50 nM, contact time 120 s, 20 µL/min; 100 mM HEPES pH 7.4, 150 mM NaCl, 3 mM EDTA, 0.005% surfactant P20; apparent constants

Sequence of UniProt P66943 (P66943 2-252): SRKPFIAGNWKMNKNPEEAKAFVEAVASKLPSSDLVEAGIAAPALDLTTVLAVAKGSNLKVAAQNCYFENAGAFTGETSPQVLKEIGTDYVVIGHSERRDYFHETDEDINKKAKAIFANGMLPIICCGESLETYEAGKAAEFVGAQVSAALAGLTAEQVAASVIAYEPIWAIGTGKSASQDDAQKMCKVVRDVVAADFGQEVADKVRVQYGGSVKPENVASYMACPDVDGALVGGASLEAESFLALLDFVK

plasminogen from human plasma (natural protein)
Kd: 411 nM
koff: 0.00553 s⁻¹
kon: 13400 M⁻¹ s⁻¹
